Measurements reported in US8524227B2, “Anti-IL-TIF antibodies” (ZymoGenetics, Inc., priority 2002, dated 2013).

Test: LPS-induced endotoxemia mouse model
Type: in vivo, mice
Method: Briefly, six month Balb/c (CRL) female mice were injected with 25 μg LPS (Sigma) in sterile PBS intraperitoneally (IP). Serum samples were collected at 0, 1, 4, 8, 16, 24, 48 and 72 hr from groups of 8 mice for each time point. Serum samples were assayed for inflammatory cytokine levels. IL-1b, IL-6, TNFa, IL-10 and serum amyloid A protein (SAA) levels were measured using commercial ELISA kits purchased from Biosource International (Camarillo, Calif.).
Body temperatures in a separate group of animals were monitored by surgically implanted telemetry devices over the course of the 72 hr experiment. Body temperatures in mice dropped maximally by 2° C. from 37.07° C. to 34.98° C. 30 minutes after LPS injection.
The ability of zcytor16 treatment to effect proinflammatory indicators induced with a single 25 μg LPS dose IP in mice was tested. All samples were analyzed for SAA, IL-TIF and circulating neutrophil counts. Subsets from each group were analyzed for particular cytokine levels (1 hour samples were screened for TNF alpha, 4 hour samples were analyzed for IL-6) Animals were sacrificed at indicated time points in Table 17 below and whole blood and serum were collected and aliquoted for analysis.
72 B1/6 female mice (CRL) were given a single IP dose of zcytor16 as described in Table 17, below. Control mice were C57B1/6 (CRL).
30 minutes later, they received another IP injection of 25 μg LPS (Sigma) in 100 μl, to initiate an endotoxemia cascade.
To assess whether zcytor16 could inhibit the SAA induction in the LPS-induced endotoxemia mouse model, mice were injected with Zcytor16, 30 minutes prior to LPS injection, as shown in Table 17 in Example 31C above.
An ELISA to determine SAA levels in the 4 hour and 8 hour samples was performed using the Mouse SAA Immunoassay Kit (BioSource International, California) following the manufacturer's directions.

B1: zcytor16-Fc4: soluble receptor for IL-TIF, zcytor16 fused to Fc4; IL-TIF antagonist (protein)
chain: TQSTHESLKPQRVQFQSRNFHNILQWQPGRALTGNSSVYFVQYKIYGQRQWKNKEDCWGTQELSCDLTSETSDIQEPYYGRVRAASAGSYSEWSMTPRFTPWWETKIDPPVMNITQVNGSLLVILHAPNLPYRYQKEKNVSIEDYYELLYRVFIINNSLEKEQKVYEGAHRAVEIEALTPHSSYCVVAEIYQPMLDRRSQRSEERCVEIPEPRSSDKTHTCPPCPAPEAEGAPSVFLFPPKPKDTLMISRTPEVTCVVVDVSHEDPEVKFNWYVDGVEVHNAKTKPREEQYNSTYRVVSVLTVLHQDWLNGKEYKCKVSNKALPSSIEKTISKAKGQPREPQVYTLPPSRDELTKNQVSLTCLVKGFYPSDIAVEWESNGQPENNYKTTPPVLDSDGSFFLYSKLTVDKSRWQQGNVFSCSVMHEALHNHYTQKSLSLSPGK
effect on SAA induction (10 ug 30 minutes prior to LPS): did not have significant effect
reduction of the SAA induction (100 ug 30 minutes prior to LPS, 4 hr and 8 hr): about 50%
neutrophil count in circulation (1 hr time point): reduced neutrophil count
SAA levels relative to PBS injected mice (4 hour, 100 μg or 10 μg): dose-dependant, statistically significant reduction
SAA levels relative to PBS injected mice (8 hour, 100m): statistically significant reduction
TNF-alpha and IL-6 level (mouse, in vivo): no significant change
